Tests used:
[1] = biological target: T1, recombinant human PSMA protein (human, UniProt Q04609 44-750); assay: ELISA, plates coated with 1 ug/mL recombinant human PSMA
T1 construct: On Blue native PAGE the protein appeared to be a mixture of dimer and monomer; also called recombinant human PSMA (Acro Biosciences / Acro Biosystems; printed 'Aero')

[2] = biological target: T2, human PSMA expressed on prostate cancer cell lines (22Rv1, C4-2B, PC3-PSMA) (human, UniProt Q04609 1-750); assay: flow cytometry on PSMA-expressing 22Rv1 cells, PE anti-human IgG-Fc secondary, MFI
T2 construct: Endogenous PSMA on 22Rv1 and C4-2B cells; PC3 cells were engineered to express PSMA; also called prostate specific membrane antigen; FOLH1
T2 sequence (Q04609 whole entry): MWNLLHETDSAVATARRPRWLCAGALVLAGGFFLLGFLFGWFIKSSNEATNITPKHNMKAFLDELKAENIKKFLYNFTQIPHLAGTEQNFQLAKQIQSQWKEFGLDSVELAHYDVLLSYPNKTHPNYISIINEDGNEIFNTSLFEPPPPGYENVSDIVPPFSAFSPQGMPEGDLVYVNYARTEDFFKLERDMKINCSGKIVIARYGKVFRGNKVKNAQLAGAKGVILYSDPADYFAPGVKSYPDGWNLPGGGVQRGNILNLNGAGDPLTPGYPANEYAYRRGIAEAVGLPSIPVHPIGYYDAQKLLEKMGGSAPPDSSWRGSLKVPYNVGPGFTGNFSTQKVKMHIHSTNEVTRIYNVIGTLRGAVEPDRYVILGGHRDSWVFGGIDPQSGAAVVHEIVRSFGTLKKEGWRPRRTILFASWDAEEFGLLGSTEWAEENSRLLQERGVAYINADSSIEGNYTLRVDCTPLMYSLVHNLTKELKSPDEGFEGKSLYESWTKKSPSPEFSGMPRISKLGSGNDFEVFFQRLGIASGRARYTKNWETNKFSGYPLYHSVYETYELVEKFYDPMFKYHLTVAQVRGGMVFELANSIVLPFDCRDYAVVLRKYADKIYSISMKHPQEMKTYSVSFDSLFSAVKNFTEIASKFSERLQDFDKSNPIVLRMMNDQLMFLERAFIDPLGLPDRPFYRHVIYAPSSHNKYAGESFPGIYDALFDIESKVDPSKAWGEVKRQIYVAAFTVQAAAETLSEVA

T1 sequence (Q04609 44-750 limits assumed): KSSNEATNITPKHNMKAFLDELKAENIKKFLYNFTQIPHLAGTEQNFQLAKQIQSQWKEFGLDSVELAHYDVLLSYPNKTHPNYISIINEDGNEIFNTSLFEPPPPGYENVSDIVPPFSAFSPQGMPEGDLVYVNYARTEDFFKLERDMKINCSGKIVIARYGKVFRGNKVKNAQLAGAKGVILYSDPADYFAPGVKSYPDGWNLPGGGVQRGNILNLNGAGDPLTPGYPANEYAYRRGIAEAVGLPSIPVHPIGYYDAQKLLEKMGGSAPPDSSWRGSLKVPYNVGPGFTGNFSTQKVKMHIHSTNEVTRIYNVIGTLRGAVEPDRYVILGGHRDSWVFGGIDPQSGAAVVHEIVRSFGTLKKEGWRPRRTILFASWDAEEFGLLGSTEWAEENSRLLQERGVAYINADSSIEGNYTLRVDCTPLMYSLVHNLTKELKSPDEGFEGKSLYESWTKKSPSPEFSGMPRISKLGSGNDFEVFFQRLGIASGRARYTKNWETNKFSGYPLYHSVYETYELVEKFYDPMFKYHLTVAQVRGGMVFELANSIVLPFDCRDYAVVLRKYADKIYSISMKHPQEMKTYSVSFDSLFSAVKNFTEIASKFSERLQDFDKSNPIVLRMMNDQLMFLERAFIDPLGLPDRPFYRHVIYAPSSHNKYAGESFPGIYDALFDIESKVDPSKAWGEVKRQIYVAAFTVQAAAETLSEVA

B1: benchmark antibody J591 (antibody, V domains shown)
VH: EVQLQQSGPELKKPGTSVRISCKTSGYTFTEYTIHWVKQSHGKSLEWIGNINPNNGGTTYNQKFEDKATLTVDKSSSTAYMELRSLTSEDSAVYYCAAGWNFDYWGQGTTLTVSS
VL: DIVMTQSHKFMSTSVGDRVSIICKASQDVGTAVDWYQQKPGQSPKLLIYWASTRHTGVPDRFTGSGSGTDFTLTITNVQSEDLADYFCQQYNSYPLTFGAGTMLDLK
notes: It was detected with anti-human IgG Fc secondary antibody; also called Benchmark (J591)
B1: binds [1]; binds [2].
